Measurements published in US6835806B2, “Cell growth regulation system” (Phoenix Pharmaceuticals, Inc., priority 2000, dated 2004).

Tested on: Human umbilical vein endothelial cells (HUVEC)
Assay: [3H]thymidine incorporation, HUVEC growth in vitro
Type: cell-based
Details: increasing concentrations, FIG. 6C
Description: To determine if the '362 peptide or the '367 peptide affects the in-vitro growth of cells, the '362 peptide was tested in culture dishes for the ability to inhibit the growth of prostrate tumor cells or of lung tumor cells. Radioactive hydrogen (^3 H) was attached to thymidine([^3H]hymidine), which is one of the components of DNA. Cells that grow in the presence of [^3H]thymidine incorporate the radioactive thymidine into their DNA.
Human umbilical vein endothelial cells (HUVEC) were also grown in increasing concentrations of the '362 peptide or '367 peptide in the presence of radioactive thymidine. HUVEC cells are commonly used to test for angiogenic regulation because these cells respond to angiogenic inhibitors in a fashion similar to the cells in the human body that form new blood vessels. […] Research protocols designed to elucidate the reasons for this unexpected difference in response of HUVEC to endostatin protein and to '362 peptide are set out in the Research Plan, Phoenix Pharmaceuticals, Inc., 2438 Wyandotte Street, Mountain View, Calif. 94043, (1999) which is hereby incorporated by reference.

B1: endostatin protein: protein of about 20 kDa with a zinc-binding domain, inhibitor of endothelial cell growth (FIG. 5) (protein, UniProt P39060 1572-1754, looked up)
Endostatin: HSHRDFQPVLHLVALNSPLSGGMRGIRGADFQCFQQARAVGLAGTFRAFLSSRLQDLYSIVRRADRAAVPIVNLKDELLFPSWEALFSGSEGPLKPGARIFSFDGKDVLRHPTWPQKSVWHGSDPNGRRLTESYCETWRTEAPSATGQASSLLGGRLLGQSAASCHHAYIVLCIENSFMTASK
modifications: Endostatin
- HUVEC growth rate (radioactive thymidine): dramatic reduction in HUVEC growth
